B1: Insulin-induced gene 2 protein (Homo sapiens), Q9Y5U4 (parent)
chain: MAEGETESPGPKKCGPYISSVTSQSVNLMIRGVVLFFIGVFLALVLNLLQIQRNVTLFPPDVIASIFSSAWWVPPCCGTASAVIGLLYPCIDRHLGEPHKFKREWSSVMRCVAVFVGINHASAKVDFDNNIQLSLTLAALSIGLWWTFDRSRSGFGLGVGIAFLATVVTQLLVYNGVYQYTSPDFLYVRSWLPCIFFAGGITMGNIGRQLAMYECKVIAEKSHQE
partner: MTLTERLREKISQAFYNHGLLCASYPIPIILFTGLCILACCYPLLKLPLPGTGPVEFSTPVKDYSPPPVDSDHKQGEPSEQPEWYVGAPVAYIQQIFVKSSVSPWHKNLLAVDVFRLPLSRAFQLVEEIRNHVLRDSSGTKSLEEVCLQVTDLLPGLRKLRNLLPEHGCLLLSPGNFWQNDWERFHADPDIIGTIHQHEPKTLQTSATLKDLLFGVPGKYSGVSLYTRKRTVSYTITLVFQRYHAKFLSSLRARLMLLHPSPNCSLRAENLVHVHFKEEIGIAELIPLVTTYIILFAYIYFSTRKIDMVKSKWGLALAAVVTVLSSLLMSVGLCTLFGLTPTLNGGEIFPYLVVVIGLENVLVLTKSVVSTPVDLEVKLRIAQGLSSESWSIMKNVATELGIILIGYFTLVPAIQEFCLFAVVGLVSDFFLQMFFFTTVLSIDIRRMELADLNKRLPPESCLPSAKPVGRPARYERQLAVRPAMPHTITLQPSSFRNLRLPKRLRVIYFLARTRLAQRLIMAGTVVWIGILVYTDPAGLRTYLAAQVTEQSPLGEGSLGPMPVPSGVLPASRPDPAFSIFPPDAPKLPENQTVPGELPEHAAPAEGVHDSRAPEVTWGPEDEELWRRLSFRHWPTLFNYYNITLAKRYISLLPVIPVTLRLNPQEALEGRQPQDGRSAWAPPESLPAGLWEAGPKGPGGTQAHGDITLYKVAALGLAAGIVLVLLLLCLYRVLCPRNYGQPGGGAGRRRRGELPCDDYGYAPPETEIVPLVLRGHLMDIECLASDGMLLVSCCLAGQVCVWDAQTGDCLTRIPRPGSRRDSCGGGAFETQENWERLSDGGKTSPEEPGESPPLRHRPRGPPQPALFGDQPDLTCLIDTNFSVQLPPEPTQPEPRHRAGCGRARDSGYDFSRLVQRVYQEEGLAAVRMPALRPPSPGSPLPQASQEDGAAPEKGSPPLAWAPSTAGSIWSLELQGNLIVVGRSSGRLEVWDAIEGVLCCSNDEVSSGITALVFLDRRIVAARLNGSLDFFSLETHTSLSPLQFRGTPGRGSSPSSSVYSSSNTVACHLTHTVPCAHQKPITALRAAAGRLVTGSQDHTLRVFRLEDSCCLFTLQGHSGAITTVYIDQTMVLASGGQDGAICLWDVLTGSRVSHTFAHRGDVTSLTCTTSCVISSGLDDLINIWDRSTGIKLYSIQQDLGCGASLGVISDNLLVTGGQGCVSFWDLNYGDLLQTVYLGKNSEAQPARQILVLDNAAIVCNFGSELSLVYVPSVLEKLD

Variants of: B1
Conditions: with scap_crigr SCAP

| Variant | effect of a mutation on the interaction |
| --- | --- |
| MAEGETESPGPKKCGPYISSVTSQSVNLMIRGVVLFFIGVFLALVLNLLQIQRNVTLFPPDVIASIFSSAWWVPPCCGTASAVIGLLYPCIDRHLGEPHKFKREWSSVMRCVAVFVGINHASAKVDFDNNIQLSLALAALSIGLWWTFDRSRSGFGLGVGIAFLATVVTQLLVYNGVYQYTSPDFLYVRSWLPCIFFAGGITMGNIGRQLAMYECKVIAEKSHQE [T136A] | decreasing interaction strength |
| MAEGETESPGPKKCGPYISSVTSQSVNLMIRGVVLFFIGVFLALVLNLLQIQRNVTLFPPDVIASIFSSAWWVPPCCGTASAVIGLLYPCIDRHLGEPHKFKREWSSVMRCVAVAVGINHASAKVDFDNNIQLSLTLAALSIGLWWTFDRSRSGFGLGVGIAFLATVVTQLLVYNGVYQYTSPDFLYVRSWLPCIFFAGGITMGNIGRQLAMYECKVIAEKSHQE [F115A] | disrupting interaction strength |
